Substrate in test [1]: F protein of RSV B-1 (respiratory syncytial virus B-1) (UniProt O36634)
The test can be described thus: cell-based or functional assay.

Substrate in test [2]: F protein of RSV B-wash (strain 18537) (respiratory syncytial virus B, strain 18537) (UniProt P13843)
In words: cell-based or functional assay.

Chain of F protein of RSV B-1 (respiratory syncytial virus B-1) (O36634 26-574): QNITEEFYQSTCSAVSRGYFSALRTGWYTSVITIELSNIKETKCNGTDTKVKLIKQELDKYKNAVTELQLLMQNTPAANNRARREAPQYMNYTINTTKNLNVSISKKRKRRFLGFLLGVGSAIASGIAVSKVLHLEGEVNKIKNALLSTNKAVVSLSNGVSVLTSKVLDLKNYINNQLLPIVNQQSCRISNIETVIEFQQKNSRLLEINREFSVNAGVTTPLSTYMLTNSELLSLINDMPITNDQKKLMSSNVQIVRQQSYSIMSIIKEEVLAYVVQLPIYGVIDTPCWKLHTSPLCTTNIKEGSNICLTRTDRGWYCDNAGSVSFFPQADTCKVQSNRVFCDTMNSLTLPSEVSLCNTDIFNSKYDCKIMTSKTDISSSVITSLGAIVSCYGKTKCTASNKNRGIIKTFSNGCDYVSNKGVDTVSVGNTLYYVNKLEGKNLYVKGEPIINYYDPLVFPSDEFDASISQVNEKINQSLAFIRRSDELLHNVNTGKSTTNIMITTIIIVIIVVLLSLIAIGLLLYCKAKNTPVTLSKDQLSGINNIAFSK
Chain of F protein of RSV B-wash (strain 18537) (respiratory syncytial virus B, strain 18537) (P13843 26-574): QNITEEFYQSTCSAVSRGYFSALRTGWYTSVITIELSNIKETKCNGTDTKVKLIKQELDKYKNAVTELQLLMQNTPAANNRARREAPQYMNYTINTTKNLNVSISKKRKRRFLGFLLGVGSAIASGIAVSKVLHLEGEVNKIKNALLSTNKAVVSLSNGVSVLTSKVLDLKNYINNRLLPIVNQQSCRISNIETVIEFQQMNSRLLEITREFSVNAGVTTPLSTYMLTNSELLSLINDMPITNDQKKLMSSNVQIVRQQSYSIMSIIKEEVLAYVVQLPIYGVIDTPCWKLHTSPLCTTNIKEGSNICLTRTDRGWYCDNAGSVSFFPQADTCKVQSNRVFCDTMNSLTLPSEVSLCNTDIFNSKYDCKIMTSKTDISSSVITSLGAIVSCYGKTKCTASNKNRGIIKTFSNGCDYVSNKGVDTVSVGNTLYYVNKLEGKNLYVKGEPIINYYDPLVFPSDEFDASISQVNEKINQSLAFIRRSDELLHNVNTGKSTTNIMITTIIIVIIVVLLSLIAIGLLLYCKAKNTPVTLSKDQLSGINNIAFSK

B1: IgG form of 90D3 (antibody, V domains shown)
VH: QVQLVESGGGLVKPGGSLRLSCVGSGFTLKNYEMNWVRQAPGQGLQYISYISSSGNVVKYVDSVQGRFTISRDNAGNSLYLQMNNLRAEDTATYYCVRGFSIDKYDSSVDEYWGQGIAVTVSS
VL: AIRLTQSPSSLSASVGDRVSITCRASQSISNFLNWYQQKPGRAPKLLISAASSLQGGVPSRFSGSGSGTDFTLTISSLQPEDFATYYCQQTYISLYTFGQGTKLEIKR
With B1, the ED50, plaque reduction, RSV B-1 in test [1] came out at 1.4 nM. Also, the ED50, plaque reduction, RSV B/wash in test [2] is 1.4 nM.

These data come from patent publication US20140363427A1.
